This note sets out measurements from patent US20110287936A1, “GENE SWITCH COMPOSITIONS AND METHODS OF USE” (priority 2010, published 2011).

Substitutions are numbered along the chain they refer to.

Data set [1] has as its system RLuc reporter. Kind of data set: Agrobacterium transient luciferase assay of promoters with and without tet operators. It counts as in vivo, Nicotiana benthamiana. As to conditions: relative light units. The procedure: The activity of unmodified and designed MMV, dMMV, and EF1A2 promoters were evaluated using the characterized 35SCaMV (SEQ ID NO:861) and 35SCaMV::tetOP (SEQ ID NO:862) promoters as controls. Promoter activity was analyzed via Agrobacterium-mediated transient expression analysis in Nicotiana benthamiana leaves. N. benthamiana leaves were infected with luciferase reporter constructs controlled by either the modified or unmodified promoters. Test constructs were identical except for the promoter sequence (Pro) being tested. Test constructs comprised the following operably linked components: • RB-Pro-RLuc-UBQ3-EF1A-NptII-EF1A3′-LB
Relative light units were quantified for modified and unmodified promoters (FIG. 3), and promoter activity for the modified version determined as the percent of unmodified promoter activity (ProOp/Pro). […] In this assay, 35S:tetOp had about 25% of the activity as 35S promoter, EF1A2:tetOp had about 30% of the activity of EF1A2 promoter, MMV:tetOp had about 60% of the activity of MMV promoter, and dMMV:tetOp had about 50% of the activity of dMMV promoter.

Data set [2] deals with operator. Kind of data set: Biacore SPR operator binding characterization of repressors. An excerpt: Select SU repressors were further characterized for operator and ligand binding, affinity and dissociation kinetics using Biacore™ SPR technology (Biacore, GE Healthcare, USA). The technology is based on surface plasmon resonance (SPR), an optical phenomenon that enables detection of unlabeled interactants in real time. The SPR-based biosensors can be used in determination of active concentration, screening and characterization in terms of both affinity and kinetics.
The kinetics of an interaction, i.e., the rates of complex formation (ka) and dissociation (kd), can be determined from the information in a sensorgram. If binding occurs as sample passes over a prepared sensor surface, the response in the sensorgram increases. If equilibrium is reached, a constant signal is seen. Replacing the sample with buffer causes the bound molecules to dissociate and the response decreases. Biacore evaluation software generates the values of ka and kd by fitting the data to interaction models.
The affinity of an interaction is determined from the level of binding at equilibrium (seen as a constant signal) as a function of sample concentration. Affinity can also be determined from kinetic measurements. For a simple 1:1 interaction, the equilibrium constant KD is the ratio of the kinetic rate constants, kd/ka.
A. Operator Binding Characterization of Repressors

Data set [3] has as its system 35S::tetO-Renilla Luciferase reporter. Description: Nicotiana benthamiana leaf infiltration assay, repression and derepression. It counts as in vivo. As to conditions: inducer concentration as low as 0.02 ppm Es.

B1: 35S:tetOp: 35SCaMV promoter with tet operators, SEQ ID NO:862, control (nucleic acid)
DNA: GAAAATCTTCGTCAACATGGTGGAGCACGACACGCTTGTCTACTCCAAAAATATCAAAGATACAGTCTCAGAAGACCAAAGGGCAATTGAGACTTTTCAACAAAGGGTAATATCCGGAAACCTCCTCGGATTCCATTGCCCAGCTATCTGTCACTTTATTGTGAAGATAGTGGAAAAGGAAGGTGGCTCCTACAAATGCCATCATTGCGATAAAGGAAAGGCCATCGTTGAAGATGCCTCTGCCGACAGTGGTCCCAAAGATGGACCCCCACCCACGAGGAGCATCGTGGAAAAAGAAGACGTTCCAACCACGTCTTCAAAGCAAGTGGATTGATGTGATATCTCCACTGACGTAAGGGATGACGCACAATCCCACTAGACTCTATCAGTGATAGAGTGTATATAAGACTCTATCAGTGATAGAGTGAACTCTATCAGTGATAGAGTTGTACTTATTTTTACAACAATTACCAACAACAACAAACAACAAACAACATTACAATTACTATTTACAATTACAGTCGACGGATCAAGTGCAAAGGTCCGCCTTGTTTCTCCTCTGTCTCTTGATCTGACTAATCTTGGTTTATGATTCGTTGAGTAATTTTGGGGAAAGCTTCGTCCACAGTTTTTTTTTCGATGAACAGTGCCGCAGTGGCGCTGATCTTGTATGCTATCCTGCAATCGTGGTGAACTTATTTCTTTTATATCCTTCACTCCCATGAAAAGGCTAGTAATCTTTCTCGATGTAACATCGTCCAGCACTGCTATTACCGTGTGGTCCATCCGACAGTCTGGCTGAACACATCATACGATATTGAGCAAAGATCGATCTATCTTCCCTGTTCTTTAATGAAAGACGTCATTTTCATCAGTATGATCTAAGAATGTTGCAACTTGCAAGGAGGCGTTTCTTTCTTTGAATTTAACTAACTCGTTGAGTGGCCCTGTTTCTCGGACGTAAGGCCTTTGCTGCTCCACACATGTCCATTCGAATTTTACCGTGTTTAGCAAGGGCGAAAAGTTTGCATCTTGATGATTTAGCTTGACTATGCGATTGCTTTCCTGGACCCGTGCAGCTGCGGACGGATCC
modifications: 35SCaMV promoter engineered with tet operators
Consider B1, for which the “promoter activity as percent of unmodified promoter activity (ProOp/Pro)” value (“promoter activity as percent … (ProOp/Pro)” for short) in data set [1] was “about 25%”.

B2: L7-3E03-D1: ethametsulfuron repressor (EsR), SEQ ID NO:411 (protein)
chain: MARLDKSKVINSALELLNEVGIEGLTTRKLAQKLGVEQPTLYWHVKNKRALLDAMAIEMLDRHATHYCPLEGESWQDFLRNNAKSMRCALLSHRDGAKVCLGTGFTEQQYETAENSLAFLCQQGFSLEHAMYAMQAAGIYTLGCVLLDQELQVAKEERETPTTDSMPPLVRQALELKDHQGAEPAFLFGLELIICGLEKQLKCESGS
modifications: Sulfonylurea responsive repressor L7-3E3-D1
The molecule B2 showed a ka in data set [2] of 55000 M⁻¹ s⁻¹. For the same molecule, in data set [3], the induction of repressor result is given as “significant but incomplete induction”.

B3: L7-1F08-A11: ethametsulfuron repressor protein, SEQ ID NO:409 (protein)
chain: B2 chain with H129N, M131L, A137V
modifications: Sulfonylurea responsive repressor L7-1F8-A11
B3 returned a ka in data set [2] of 71000 M⁻¹ s⁻¹.

B4: L7-1G06-B2: ethametsulfuron repressor (EsR), SEQ ID NO:410 (protein)
chain: B2 chain with L117M, H129N, M131L, A137V
modifications: Sulfonylurea responsive repressor L7-1G6-B2
The molecule B4 had a ka in data set [2] of 46000 M⁻¹ s⁻¹.

B5: L7-1C03-A5: ethametsulfuron repressor (EsR), SEQ ID NO:408 (protein)
chain: B2 chain with Y67V, S85I, M131L, Y140F, K177N
modifications: Sulfonylurea responsive repressor L7-1C3-A5
On to B5, for which the ka in data set [2] stood at 47000 M⁻¹ s⁻¹.

B6: dMMV:tetOp: double enhancer MMV promoter with three tet operators, SEQ ID NO:858 (nucleic acid)
DNA: AAACCAATTCGTCAACTTCGTCCACAGACATCAACATCTTATCGTCCTTTGAAGATAAGATAATAATGTTGAAGATAAGAGTGGGAGCCCCCACTAAAACATTGCTTTGTCAAAAGCTAAAAAAGATGATGCCCGACAGCCACTTGTGTGAAGCATGAGAAGCCGGTCCCTCCACTAAGAAAATTAGTGAAGCATCTTCCAGTGGTCCCTCCACTCACAGCTCAATCAGTGAGCAACAGGACGAAGGAAATGACGTAAGCCATGACGTCTAATCCCAACTTCGTCCACAGACATCAACATCTTATCGTCCTTTGAAGATAAGATAATAATGTTGAAGATAAGAGTGGGAGCCACCACTAAAACATTGCTTTGTCAAAAGCTAAAAAAGATGATGCCCGACAGCCACTTGTGTGAAGCATGAGAAGCCGGTCCCTCCACTAAGAAAATTAGTGAAGCATCTTCCAGTGGTCCCTCCACTCACAGCTCAATCAGTGAGCAACAGGACGAAGGAAATGACGTAAGCCATGACGTCTAATCCCACACTCTATCAGTGATAGAGTTTATATAAGACTCTATCAGTGATAGAGTGAACTCTATCAGTGATAGAGTGAGATCAATCGAAATCAAAATCGGAATCGAAATCAAAATCGGAATCGAAATCTCTCATCTAAGAGCTCAAAAAAAAAAAAAACC
modifications: dMMV promoter engineered with tet operators
As for B6, the “promoter activity as percent … (ProOp/Pro)” value in data set [1] is recorded as “about 50%”.

B7: MMV:tetOp: Mirabilis mosaic virus promoter with three tet operators, SEQ ID NO:857 (nucleic acid)
DNA: TTCGTCCACAGACATCAACATCTTATCGTCCTTTGAAGATAAGATAATAATGTTGAAGATAAGAGTGGGAGCCACCACTAAAACATTGCTTTGTCAAAAGCTAAAAAAGATGATGCCCGACAGCCACTTGTGTGAAGCATGAGAAGCCGGTCCCTCCACTAAGAAAATTAGTGAAGCATCTTCCAGTGGTCCCTCCACTCACAGCTCAATCAGTGAGCAACAGGACGAAGGAAATGACGTAAGCCATGACGTCTAATCCCACACTCTATCAGTGATAGAGTTTATATAAGACTCTATCAGTGATAGAGTGAACTCTATCAGTGATAGAGTGAGATCAATCGAAATCAAAATCGGAATCGAAATCAAAATCGGAATCGAAATCTCTCATCTAAGAGCTCAAAAAAAAAAAAAACC
modifications: MMV promoter engineered with tet operators
B7: the “promoter activity as percent … (ProOp/Pro)” value in data set [1] is “about 60%”.
